Experimental data published in article PMC12520519, “RESP2: An Uncertainty Aware Multi‐Target Multi‐Property Optimization AI Pipeline for Antibody Discovery” (Advanced Science, 2025).

Target: T1, receptor binding domain (RBD) of the SARS-CoV-2 spike protein, Delta variant (SARS-CoV-2, Delta (B.1.617.2), strain)
T1 construct: also called Delta RBD; source: bought: Acro Biosystems
Assay: flow cytometry on cells
Conditions: one partner purified

B1: Delta-6 scFv (scFv, V domains shown)
VH: EVQLLESGGGLVQPGGTLRLSCAASGFIVSSNYMSWVRQAPGKGLEWVSLVYPGGSTYYADSVKGRFTVSRDNSKNTLYLQMNSLRAEDMAVYYCARDLPSGVDAVDAFDIWGQGTMVTVSS
VL: DIRVTQSPSSLSASVGDRVSITCRASQIISGYLNWYQQKPGSAPQLLIYASSSLQSGVPPRFSGSRSGTEFTLTISSLQPEDFATYYCQQTYSIPFTFGPGTKVDIK
notes: also called WT Delta-6 scFv; starting clone
- Kd: 1.3 nM
